Results reported in publication PMC7842947.

Biological target: chondroitin sulfate proteoglycan 4 (CSPG4), endogenous on HeLa cells (human (endogenous in HeLa)) (UniProt Q6UVK1)
Sequence of UniProt Q6UVK1 (Q6UVK1 30-2322): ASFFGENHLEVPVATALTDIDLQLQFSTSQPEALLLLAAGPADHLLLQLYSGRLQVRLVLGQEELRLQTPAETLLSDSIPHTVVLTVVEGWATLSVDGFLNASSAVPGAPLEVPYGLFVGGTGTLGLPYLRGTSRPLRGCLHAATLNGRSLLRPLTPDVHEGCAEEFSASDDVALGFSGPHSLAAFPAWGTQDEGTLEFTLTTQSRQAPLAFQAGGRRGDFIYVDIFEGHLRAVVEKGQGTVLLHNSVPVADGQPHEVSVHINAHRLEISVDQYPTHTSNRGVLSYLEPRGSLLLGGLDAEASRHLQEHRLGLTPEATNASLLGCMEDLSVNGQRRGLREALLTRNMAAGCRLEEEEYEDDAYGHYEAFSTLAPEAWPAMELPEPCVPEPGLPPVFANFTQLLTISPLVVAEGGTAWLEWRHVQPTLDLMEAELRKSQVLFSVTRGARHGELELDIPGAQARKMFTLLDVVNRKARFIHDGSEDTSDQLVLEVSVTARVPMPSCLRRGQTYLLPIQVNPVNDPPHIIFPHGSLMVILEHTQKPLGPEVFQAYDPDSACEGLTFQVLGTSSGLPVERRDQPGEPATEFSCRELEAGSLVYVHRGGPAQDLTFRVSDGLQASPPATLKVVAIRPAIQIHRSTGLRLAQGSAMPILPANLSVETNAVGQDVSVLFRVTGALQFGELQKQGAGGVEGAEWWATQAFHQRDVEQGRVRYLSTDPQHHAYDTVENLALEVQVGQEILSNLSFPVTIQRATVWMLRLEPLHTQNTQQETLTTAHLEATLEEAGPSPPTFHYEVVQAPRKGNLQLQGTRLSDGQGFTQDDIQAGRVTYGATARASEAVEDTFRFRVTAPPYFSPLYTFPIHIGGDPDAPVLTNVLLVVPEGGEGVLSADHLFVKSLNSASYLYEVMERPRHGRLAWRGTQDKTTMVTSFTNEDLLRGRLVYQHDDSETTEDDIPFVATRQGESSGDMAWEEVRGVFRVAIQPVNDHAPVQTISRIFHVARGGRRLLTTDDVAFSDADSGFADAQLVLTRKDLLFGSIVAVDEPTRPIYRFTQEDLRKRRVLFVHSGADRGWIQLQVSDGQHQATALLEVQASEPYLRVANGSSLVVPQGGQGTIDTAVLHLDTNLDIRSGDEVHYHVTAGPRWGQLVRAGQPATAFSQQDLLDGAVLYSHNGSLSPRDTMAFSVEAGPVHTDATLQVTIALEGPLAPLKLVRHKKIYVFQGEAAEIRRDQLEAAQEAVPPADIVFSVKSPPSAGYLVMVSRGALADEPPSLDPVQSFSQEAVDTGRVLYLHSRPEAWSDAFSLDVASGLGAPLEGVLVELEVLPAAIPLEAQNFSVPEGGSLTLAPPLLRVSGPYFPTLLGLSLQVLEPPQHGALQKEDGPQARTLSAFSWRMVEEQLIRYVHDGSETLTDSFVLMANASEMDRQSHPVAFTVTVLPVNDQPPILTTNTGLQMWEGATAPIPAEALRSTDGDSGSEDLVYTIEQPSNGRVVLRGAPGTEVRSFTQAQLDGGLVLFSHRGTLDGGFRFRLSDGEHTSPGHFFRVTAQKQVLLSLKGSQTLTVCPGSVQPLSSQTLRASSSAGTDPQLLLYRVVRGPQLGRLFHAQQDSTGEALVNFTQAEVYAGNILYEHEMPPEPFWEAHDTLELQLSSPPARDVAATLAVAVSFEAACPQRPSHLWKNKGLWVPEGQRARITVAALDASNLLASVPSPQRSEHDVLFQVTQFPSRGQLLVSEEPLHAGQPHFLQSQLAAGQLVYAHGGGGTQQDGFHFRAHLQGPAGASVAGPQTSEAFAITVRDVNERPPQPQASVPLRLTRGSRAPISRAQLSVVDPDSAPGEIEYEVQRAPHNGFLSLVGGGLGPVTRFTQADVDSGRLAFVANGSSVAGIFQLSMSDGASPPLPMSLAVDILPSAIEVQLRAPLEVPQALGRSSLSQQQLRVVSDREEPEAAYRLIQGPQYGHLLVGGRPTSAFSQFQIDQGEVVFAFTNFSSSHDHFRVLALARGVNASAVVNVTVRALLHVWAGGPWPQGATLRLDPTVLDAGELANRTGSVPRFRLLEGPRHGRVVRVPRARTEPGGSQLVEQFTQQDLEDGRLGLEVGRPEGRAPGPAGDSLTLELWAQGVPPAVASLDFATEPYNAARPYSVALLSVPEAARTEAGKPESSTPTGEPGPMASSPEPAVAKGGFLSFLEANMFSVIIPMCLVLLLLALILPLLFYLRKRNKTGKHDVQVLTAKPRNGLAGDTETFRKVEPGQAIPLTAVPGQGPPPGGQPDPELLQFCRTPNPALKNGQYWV

Substance: Clostridioides difficile toxin B variant 2 (TcdB2), full length, reference sequence from strain CD196 (natural protein)
- CR50, cytopathic cell-rounding assay on HeLa FZD1/2/7-/- cells: 0.06 pM
